Measured values as given in article PMC9178029, “The structure of EXTL3 helps to explain the different roles of bi-domain exostosins in heparan sulfate synthesis” (Nature Communications, 2022).

Molecular target: the molecule itself
Assay: cryo-EM structure; single-particle cryo-EM of purified EXTL3ΔN at 0.1-0.4 mg/ml, C2 symmetry; apo (2.4 Å) and with 10 mM UDP and 2.5 mM MnCl2 (2.9 Å); buffer 50 mM Tris-HCl pH 6.8, 100 mM NaCl, 50 mM KCl

B1: EXTL3ΔN, soluble form of human exostosin-like 3 (EXTL3) lacking the first 51 amino acids (enzyme, UniProt O43909 52-919, looked up)
chain: TTLDEADEAGKRIFGPRVGNELCEVKHVLDLCRIRESVSEELLQLEAKRQELNSEIAKLNLKIEACKKSIENAKQDLLQLKNVISQTEHSYKELMAQNQPKLSLPIRLLPEKDDAGLPPPKATRGCRLHNCFDYSRCPLTSGFPVYVYDSDQFVFGSYLDPLVKQAFQATARANVYVTENADIACLYVILVGEMQEPVVLRPAELEKQLYSLPHWRTDGHNHVIINLSRKSDTQNLLYNVSTGRAMVAQSTFYTVQYRPGFDLVVSPLVHAMSEPNFMEIPPQVPVKRKYLFTFQGEKIESLRSSLQEARSFEEEMEGDPPADYDDRIIATLKAVQDSKLDQVLVEFTCKNQPKPSLPTEWALCGEREDRLELLKLSTFALIITPGDPRLVISSGCATRLFEALEVGAVPVVLGEQVQLPYQDMLQWNEAALVVPKPRVTEVHFLLRSLSDSDLLAMRRQGRFLWETYFSTADSIFNTVLAMIRTRIQIPAAPIREEAAAEIPHRSGKAAGTDPNMADNGDLDLGPVETEPPYASPRYLRNFTLTVTDFYRSWNCAPGPFHLFPHTPFDPVLPSEAKFLGSGTGFRPIGGGAGGSGKEFQAALGGNVPREQFTVVMLTYEREEVLMNSLERLNGLPYLNKVVVVWNSPKLPSEDLLWPDIGVPIMVVRTEKNSLNNRFLPWNEIETEAILSIDDDAHLRHDEIMFGFRVWREARDRIVGFPGRYHAWDIPHQSWLYNSNYSCELSMVLTGAAFFHKYYAYLYSYVMPQAIRDMVDEYINCEDIAMNFLVSHITRKPPIKVTSRWTFRCPGCPQALSHDDSHFHERHKCINFFVKVYGYMPLLYTQFRVDSVLFKTRLPHDKTKCFKFI
modifications: partial N-glycans modelled at Asn592 and Asn790; intermolecular disulfide bridges between Cys793 and Cys915
notes: human exostosin-like 3 (EXTL3), amino acids 52-919; holds the predicted coiled coil, the GT47 domain, the inter-domain linker and the GT64 domain; lacks the transmembrane helix; Only the 170 kDa globular part (GT47, linker, GT64) is seen in the map; the coiled coil is not visible; also called EXTL3∆N; secretory EXTL3∆N
Question: B1 was tested. Which “stoichiometry N” value did it give?
Answer: Its value is 2.
